The values that follow are results of earlier work, collected in publication PMC4254573.

One data set deals with sEGFR ECD (Homo sapiens) (UniProt P00533).
The target of data set [1] is EGFR ECD (Drosophila melanogaster) (UniProt P04412).

With sEGFR ECD (from UniProt P00533), in the data set with sEGFR ECD (Homo sapiens), the Kd – broadly, the constant that tells how readily two partners part at equilibrium – is 1 µM.
Turning to EGFR ECD (from UniProt P04412), the dissociation constant Kd in data set [1] is 40 µM.
